# B1: Synechocystis sp. PCC6803 phosphopantetheinyl transferase Sppt (slr0495, Swissprot accession number Q55185) (Synechocystis sp. PCC 6803 substr. Kazusa) (protein)
# chain: MAISAEFALCLNSPVLPQPQIWLCPTDRPLIPGYQALLSSEEMARGERYQRPQDKQRFLTMRLALRILLARQLDCLPQQLQFTYGPQGKPELVDRERRSPWFNVAHSGNYGLIGLSTEGEIGVDLQIMLPKPHYLKLAKRFFAPQEVQQLESLEGEKRTKLFYQLWTAKEAFLKATGKGISGGLNQVIPDENLAKYQYLPDSGDTNHWRLSSQPLLADQGSNDNYWMAIAWCTNEVNQVESNYLPNIQPFQWPRNLHSLPSFRYLGKGEFQHTGGRY
# notes: carrier-protein substrate truncated SACP3
# B2: Sppt: Synechocystis sp. PCC6803 phosphopantetheinyl transferase (slr0495, Swissprot Q55185) (protein)
# chain: MLPQPQIWLCPTDRPLIPGYQALLSSEEMARGERYQRPQDKQRFLTMRLALRILLARQLDCLPQQLQFTYGPQGKPELVDRERRSPWFNVAHSGNYGLIGLSTEGEIGVDLQIMLPKPHYLKLAKRFFAPQEVQQLESLEGEKRTKLFYQLWTAKEAFLKATGKGISGGLNQVIPDENLAKYQYLPDSGDTNHWRLSSQPLLADQGSNDNYWMAIAWCTNEVNQVESNYLPNIQPFQWPRNLDSLP
# What was measured:
# [1] = biological target: truncated SACP, SACP3 (Synechocystis sp. PCC6803) (UniProt P20804)
# [2] = biological target: Bacillus brevis ATCC8185 NRPS peptidyl carrier protein involved in tyrocidine biosynthesis (TycPCP) (Bacillus brevis ATCC8185)
# [3] = substrate: CC(C)(COP(=O)(O)OP(=O)(O)OC[C@H]1O[C@@H](n2cnc3c(N)ncnc32)[C@H](O)[C@@H]1OP(=O)(O)O)[C@@H](O)C(=O)NCCC(=O)NCCS; assay: Phosphopantetheinylation assay with HPLC analysis: kinetics of Sppt with respect to CoA, carrier protein SACP3 (truncated SACP); type: biochemical, Synechocystis sp. PCC6803; conditions: other: Michaelis-Menten fit, 37° C.
# Excerpt: Sppt and SACP were expressed and purified to determine the activity of Sppt via phosphopantetheinylation assays. Sppt was amplified by the primer pair SynPpF (5′-TGTTTAAACTCACCTG-3′) (SEQ ID NO: 9) and SynPpR (5′-CCCAAGGTTACGAAAC-3′) (SEQ ID NO: 10). The resulting PCR product was cloned into pGEM-T (Promega), digested with the restriction enzymes SacI and EcoRV and ligated into pET30 (Novagen, San Diego, Calif.). The Synechocystis sp. PCC6803 fatty acid synthesis (FAS) ACP, designated SACP (AcpP BA000022), was amplified by the primer pair ssl2084Efw (5′-[…]-3′) (SEQ ID NO: 11) and ssl12084 Hry (5′-[…]-3′) (SEQ ID NO: 12), digested with the restriction enzymes EcoRI and HindIII, and cloned into pET30. A truncated SACP, SACP3, was cloned and expressed for HPLC kinetic analysis using the primers 2084NdeF (5′-[…]-3′) (SEQ ID NO: 13) and 2083XhoR (5′-[…]-3′) (SEQ ID NO: 14).
# The constructs were transformed into BL21(DE3) Rosetta (Novagen) for expression. Sppt was expressed at 37° C., with an induction concentration of 1 mM isopropyl-beta-D-thiogalactopyranoside (IPTG), for 3 hours. SACP and SACP3 were expressed at 37° C. with 1 mM IPTG for 20-40 min. Cultures were harvested at 5,000×g and cell pellets were stored at −80° C. Cell pellets were resuspended in Hepes buffer (Hepes 50 mM, NaCl 150 mM pH 7.4) and passaged three times through a cooled French pressure cell at […] (Paton Scientific, Victor Harbor, South Australia). […]
# The protein concentrations were determined based on the calculated extinction coefficients: SACP 6,970 cm^−1M^−1, Sppt 53,110 cm^−1M^−1. […]
# Sppt activity towards SACP was determined in a 10 min phosphopantetheinylation assay at 37° C. as previously described in Copp J. N., Roberts A. A., Marahiel M. A., Neilan B. A., 2007, Characterization of PPTNs, a cyanobacterial phosphopantetheinyl transferase from Nodularia spumigena NSOR10. […]
# The CoA inhibition and pH activity range for Sppt was determined using in vitro phosphopantetheinylation assays with the truncated SACP3. […]
# NpACP = assay: Sppt in vitro phosphopantetheinylation of non-cognate carrier proteins, ESI-MS; type: biochemical, N. punctiforme ATCC29133; conditions: 30 min reaction
# Procedure: (§1) Sppt activity towards SACP was determined in a 10 min phosphopantetheinylation assay at 37° C. as previously described in Copp J. N., Roberts A. A., Marahiel M. A., Neilan B. A., 2007, Characterization of PPTNs, a cyanobacterial phosphopantetheinyl transferase from Nodularia spumigena NSOR10. J Bacteria 189(8):3133-9. Briefly, the 100-200 μl reactions comprised of 50 mM Tris-HCl pH 7.4, 12.5 mM MgCl2, 0.5 mM CoA, 2 μM DTT, 100 μM carrier protein and 300 nM Sppt. Reactions were incubated for 10 min at 37° C., terminated by the addition of 1 ml trichloroacetic acid and precipitated overnight at −20° C. before centrifugation for 15 min at 18,000×g. Samples were dissolved in water:acetonitrile:formic acid (50:49:1). Phosphopantetheinylation was observed by an increase in mass of 340 Da as visualised by electrospray ionisation mass spectrometry (ESI-MS). […]
# (§2) The ability of Sppt to activate carrier proteins from a range of secondary metabolism pathways was tested, including those from unicellular and filamentous, heterocyst-forming cyanobacteria. […] Protein concentrations were determined based on the calculated extinction coefficients: NpArCP 8,250 cm^−1M^−1, NpACP 13,940 cm^−1M^−1, MPCP 6,970 cm^−1M^−1 and TycPCP 9,530 cm^−1M^−1. Phosphopantetheinylation assays were carried out in 30 min reactions and analysed by ESI-mass spectrometry described in Example 4 above.
# NpArCP = assay: as above; type: biochemical, N. punctiforme ATCC29133; conditions: 30 min reaction
# Procedure: as §1, §2
# MPCP = assay: as above; type: biochemical, M. aeruginosa PCC7806; conditions: 30 min reaction
# Procedure: as §1, §2
# TycPCP = assay: as above; type: biochemical, Bacillus brevis ATCC8185; conditions: 30 min reaction; estimated from holo- and apo-CP abundance in mass spectra
# Procedure: as §1, §2
molecule,measurement,setting,value
Synechocystis sp. PCC6803 phosphopantetheinyl transferase (Sppt) (from UniProt Q55185) (enzyme),"kcat of phosphopantetheinylation of SACP3 (HPLC assay, CoA varied) (min^-1 (printed min^d))",[1],28.4
same,"phosphopantetheinylation of the carrier protein (30 min assay, ESI-MS; % holo-CP)",[2],54%
B1,Km,[3],169.17 ± 37.48 µM
same,kcat,[3],0.473 s⁻¹
same,kcat/Km,[3],2800 M⁻¹ s⁻¹
B2,phosphopantetheinylation of NpACP,NpACP,not reproducibly detected
same,phosphopantetheinylation of NpArCP,NpArCP,unable to phosphopantetheinylate
same,phosphopantetheinylation of MPCP,MPCP,small mass peak corresponding to the addition of a 340 Da phosphopantetheinyl moiety
same,TycPCP phosphopantetheinylated (% holo-CP),TycPCP,approximately 54%
